The values below come from patent US20180244769A1 (Ablynx, published 2018).

The target of test [1] is human P2X7 (hP2X7) (human) (UniProt Q99572). The test is described as follows: cell-based or functional assay.
Test [2] shares this target. In words: flow cytometry on human peripheral blood lymphocytes of a single donor, CD4+ cells. Background: In flow cytometry, cells or beads pass a laser one at a time.
Test [3] has the same target. In words: flow cytometry on human peripheral blood lymphocytes of a single donor, CD4- cells.
Test [4] has the same target. In words: flow cytometry, HEK cells co-transfected with GFP and hP2X7, bound antibody detected with Alexa647 anti-mouse IgG; other quadrants: UL 0.5, LL 9, LR 19.
For the next test, the target named is T1, rat P2X7 (rP2X7) (Rattus norvegicus, UniProt Q64663 1-595).
T1 sequence: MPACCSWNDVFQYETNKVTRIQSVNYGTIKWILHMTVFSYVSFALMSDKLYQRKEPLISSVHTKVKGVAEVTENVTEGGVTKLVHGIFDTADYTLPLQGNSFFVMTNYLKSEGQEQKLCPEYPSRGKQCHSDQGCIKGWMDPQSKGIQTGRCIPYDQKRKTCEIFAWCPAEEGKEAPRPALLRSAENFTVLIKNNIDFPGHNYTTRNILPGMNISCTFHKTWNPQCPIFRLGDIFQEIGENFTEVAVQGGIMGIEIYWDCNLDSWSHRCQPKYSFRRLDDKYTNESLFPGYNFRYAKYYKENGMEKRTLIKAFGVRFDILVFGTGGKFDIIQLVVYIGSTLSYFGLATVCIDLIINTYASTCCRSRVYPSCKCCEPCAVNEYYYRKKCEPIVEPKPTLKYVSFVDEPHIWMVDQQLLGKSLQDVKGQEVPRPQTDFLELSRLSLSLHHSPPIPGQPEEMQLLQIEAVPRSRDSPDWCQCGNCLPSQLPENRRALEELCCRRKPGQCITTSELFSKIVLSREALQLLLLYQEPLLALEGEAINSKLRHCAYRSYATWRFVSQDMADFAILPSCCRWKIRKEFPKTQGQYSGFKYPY
The test is described as follows: flow cytometry, HEK cells co-transfected with GFP and rP2X7, bound antibody detected with Alexa647 anti-mouse IgG; other quadrants: UL 1, LL 7.5, LR 21.

For a further test, the target named is T2, mouse P2X7 (mP2X7) (mus musculus, UniProt Q9Z1M0 1-595).
T2 construct: Also used here for endogenous P2X7 on Yac-1 cells, primary mouse lymphocytes and macrophages
T2 chain: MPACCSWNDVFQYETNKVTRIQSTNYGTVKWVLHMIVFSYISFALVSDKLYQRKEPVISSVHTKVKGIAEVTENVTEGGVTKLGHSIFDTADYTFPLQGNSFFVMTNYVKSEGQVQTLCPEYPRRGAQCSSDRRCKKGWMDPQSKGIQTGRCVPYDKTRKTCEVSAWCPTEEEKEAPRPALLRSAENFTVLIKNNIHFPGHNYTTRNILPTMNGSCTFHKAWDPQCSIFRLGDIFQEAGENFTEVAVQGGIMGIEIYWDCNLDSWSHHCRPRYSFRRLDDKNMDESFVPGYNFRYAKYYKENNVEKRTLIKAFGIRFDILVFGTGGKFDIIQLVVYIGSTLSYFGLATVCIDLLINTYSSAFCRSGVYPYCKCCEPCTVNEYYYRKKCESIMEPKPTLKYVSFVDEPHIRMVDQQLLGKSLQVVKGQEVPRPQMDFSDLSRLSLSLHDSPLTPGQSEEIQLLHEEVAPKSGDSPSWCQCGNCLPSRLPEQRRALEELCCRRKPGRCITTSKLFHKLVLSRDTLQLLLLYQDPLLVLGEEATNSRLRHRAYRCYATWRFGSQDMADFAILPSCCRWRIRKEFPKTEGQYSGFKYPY
The test is described as follows: flow cytometry, HEK cells co-transfected with GFP and mP2X7, bound antibody detected with Alexa647 anti-mouse IgG; other quadrants: UL 64, LL 26, LR 5.5.

For test [5], the target named is human P2X7 (hP2X7) (human) (UniProt Q99572). The test is described as follows: flow cytometry of whole blood of one donor, gate on lymphocytes, Alexa647 conjugate with anti-CD4; unblocked = pre-incubated with control 1067-Fc; lower quadrants 32 and 33.
Test [6] shares this target. In words: flow cytometry of whole blood of one donor, gate on lymphocytes, Alexa647 conjugate with anti-CD4; blocked = pre-incubated with excess unlabelled Nb-Fc (legend: 3 ug each of 1c113-Fc and 3c23-Fc); lower quadrants 43 and 55.

human P2X7 (hP2X7) (human), sequence (Q99572 whole entry): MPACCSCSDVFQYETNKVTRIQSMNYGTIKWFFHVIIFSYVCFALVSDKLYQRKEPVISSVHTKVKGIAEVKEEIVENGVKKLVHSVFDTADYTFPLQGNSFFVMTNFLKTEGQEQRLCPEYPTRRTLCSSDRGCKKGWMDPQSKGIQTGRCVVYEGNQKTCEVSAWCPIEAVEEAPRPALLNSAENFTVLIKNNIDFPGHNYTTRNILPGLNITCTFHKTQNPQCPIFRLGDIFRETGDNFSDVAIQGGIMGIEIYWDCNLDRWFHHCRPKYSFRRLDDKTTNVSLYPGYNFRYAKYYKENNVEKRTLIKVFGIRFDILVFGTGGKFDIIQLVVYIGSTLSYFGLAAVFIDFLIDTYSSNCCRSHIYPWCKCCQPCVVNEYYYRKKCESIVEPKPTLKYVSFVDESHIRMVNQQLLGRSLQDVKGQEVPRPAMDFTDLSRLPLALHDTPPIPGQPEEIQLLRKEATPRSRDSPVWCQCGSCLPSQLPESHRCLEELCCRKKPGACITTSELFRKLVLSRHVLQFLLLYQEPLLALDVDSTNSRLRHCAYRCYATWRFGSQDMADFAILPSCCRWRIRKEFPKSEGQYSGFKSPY

“mAb L4 (anti-hP2X7 mouse monoclonal antibody)” returned an IC50 [nM], blockade of L-selectin (CD62L) shedding in transfected HEK cells, 4 mM ATP in test [1] above 19 nM. The substance also showed an IC50 [ng/ml], blockade of L-selectin (CD62L) shedding in transfected HEK cells, 4 mM ATP in test [1] above 2800 ng/mL. Moreover, the MFI was 11 in test [2] and 10 in test [3]. The % of cells in the GFP+ / anti-mIgG A647+ quadrant (upper right) in test [4] amounted to 72%; with rat P2X7 (rP2X7) it was 70%; with mouse P2X7 (mP2X7), 4.8%. For the same substance, the % of lymphocytes in the CD4+ / AF647+ quadrant (upper right), unblocked in test [5] was 22%. Further, in test [5], the % of lymphocytes in the CD4- / AF647+ quadrant (upper left), unblocked amounted to 13%. Besides, in test [6], the % of lymphocytes in the CD4+ / AF647+ quadrant (upper right), blocked is 0.6%. Further, the % of lymphocytes in the CD4- / AF647+ quadrant (upper left), blocked in test [6] was determined as 0.9%.
